Measurements published in US20200239543A1 (ALX ONCOLOGY, published 2020).

Assays:
human CD47 [1] = biological target: T1, human CD47 (human, UniProt Q08722 19-139); experiment: SPR (Biacore T100 and ProteOn XPR36)
T1 construct: extracellular domain; also called CD47 ECD

mouse CD47 [2] = biological target: T2, mouse CD47 (mouse, UniProt Q61735 19-140, limits assumed); experiment: SPR (Biacore T100 and ProteOn XPR36)
T2 construct: also called mouse CD47 protein
T2 sequence (looked up): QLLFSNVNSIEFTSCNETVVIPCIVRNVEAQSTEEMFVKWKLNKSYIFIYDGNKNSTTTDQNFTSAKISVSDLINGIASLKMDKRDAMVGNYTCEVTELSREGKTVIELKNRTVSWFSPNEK

rat CD47 = biological target: T3, rat CD47 (rat, UniProt P97829 19-140, limits assumed); experiment: SPR (Biacore T100 and ProteOn XPR36)
T3 sequence (looked up): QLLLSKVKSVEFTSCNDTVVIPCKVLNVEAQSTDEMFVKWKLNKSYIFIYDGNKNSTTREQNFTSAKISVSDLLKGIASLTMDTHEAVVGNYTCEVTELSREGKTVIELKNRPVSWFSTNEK

human CD47 [3] = biological target: T1, human CD47; experiment: SPR, 25 C, 1:1 Langmuir fit
human CD47 [4] = biological target: T1, human CD47; experiment: SPR; protein made in E. coli
human CD47 [5] = biological target: T1, human CD47; experiment: SPR as in Example 1
human CD47 [6] = biological target: T1, human CD47; experiment: SPR, 25 C, 1:1 Langmuir fit; remark: listed apart in the source
mouse CD47 [7] = biological target: T2, mouse CD47; experiment: SPR, 25 C, 1:1 Langmuir fit

T1 sequence (Q08722 19-139 limits assumed): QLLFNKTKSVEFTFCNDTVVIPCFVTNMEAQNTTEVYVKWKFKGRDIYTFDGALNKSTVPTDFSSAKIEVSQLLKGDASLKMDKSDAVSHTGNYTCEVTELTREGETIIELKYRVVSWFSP

B1: SIRP-α D1 variant fused to Fc variant, SEQ ID NO: 214 (Fc fusion)
chain: EEELQVIQPDKSVLVAAGETATLRCTATSLFPVGPIQWFRGAGPGRELIYNQREGPFPRVTTVSDLTKRNNMDFSIRIGAITPADAGTYYCVKFRKGSPDDVEFKSGAGTELSVRAKPSERKSSVECPPCPAPPVAGPSVFLFPPKPKDTLMISRTPEVTCVVVDVSHEDPEVQFNWYVDGVEVHNAKTKPREEQFASTFRVVSVLTVVHQDWLNGKEYKCKVSNKGLPSSIEKTISKTKGQPREPQVYTLPPSREEMTKNQVSLTCLVKGFYPSDIAVEWESNGQPENNYKTTPPMLDSDGSFFLYSKLTVDKSRWQQGNVFSCSVMHEALHNHYTQKSLSLSPG
Human CD47 [1]
  Kd: 2 nM
Mouse CD47 [2]
  Kd: 63 nM
Rat CD47
  Kd: 80 nM

B2: SIRP-α D1 variant polypeptide of SEQ ID NO: 54 (receptor)
chain: EEELQVIQPDKSVSVAAGESAILHCTVTSLFPVGPIQWFRGAGPARELIYNQRQGPFPRVTTVSESTKRENMDFSISISNITPADAGTYYCVKFRKGSPDTEFKSGAGTELSVRAKPS
notes: engineered SIRP-α D1 domain
Human CD47 [3]
  Kd: 2.7 nM
Human CD47 [4]
  Kd: 2.7 nM

B3: SIRP-α D1 variant polypeptide of SEQ ID NO: 60 (receptor)
chain: EEELQIIQPDKSVSVAAGESAILHCTITSLFPVGPIQWFRGAGPARVLIYNQREGPFPRVTTVSETTKRENMDFSISISNITPADAGTYYCIKFRKGSPDTEFKSGAGTELSVRAKPS
notes: engineered SIRP-α D1 domain
Human CD47 [3]
  Kd: 0.38 nM
Human CD47 [4]
  Kd: 0.38 nM

B4: SIRP-α D1 variant polypeptide of SEQ ID NO: 59 (receptor)
chain: EEELQIIQPDKSVSVAAGESAILHCTITSLFPVGPIQWFRGAGPARVLIYNQKQGPFPRVTTVSETTKRENMDFSISISNITPADAGTYYCIKFRKGSPDTEFKSGAGTELSVRAKPS
notes: engineered SIRP-α D1 domain
Human CD47 [3]
  Kd: 14 nM
Human CD47 [4]
  Kd: 14 nM

B5: SIRP-α D1 variant polypeptide of SEQ ID NO: 63 (receptor)
chain: EEELQIIQPDKSVSVAAGESAILHCTITSLFPVGPIQWFRGAGPARVLIYNQRQGPFPRVTTVSETTKRENMDFSISISNITPADAGTYYCVKFRKGSPDTEFKSGAGTELSVRAKPS
notes: engineered SIRP-α D1 domain
Human CD47 [3]
  Kd: 0.089 nM
Human CD47 [4]
  Kd: 0.089 nM

B6: SIRP-α D1 variant polypeptide of SEQ ID NO: 62 (receptor)
chain: EEELQIIQPDKSVSVAAGESAILHCTITSLFPVGPIQWFRGAGPARVLIYNQRQGPFPRVTTVSESTKRENMDFSISISNITPADAGTYYCIKFRKGSPDTEFKSGAGTELSVRAKPS
notes: engineered SIRP-α D1 domain
Human CD47 [3]
  Kd: 0.13 nM
Human CD47 [4]
  Kd: 0.13 nM

B7: SIRP-α D1 variant polypeptide of SEQ ID NO: 58 (receptor)
chain: EEELQIIQPDKSVSVAAGESAILHCTITSLFPVGPIQWFRGAGPARELIYNQRQGPFPRVTTVSETTKRENMDFSISISNITPADAGTYYCIKFRKGSPDTEFKSGAGTELSVRAKPS
notes: engineered SIRP-α D1 domain
Human CD47 [3]
  Kd: 0.16 nM
Human CD47 [4]
  Kd: 0.16 nM

B8: SIRP-α D1 variant polypeptide of SEQ ID NO: 61 (receptor)
chain: EEELQIIQPDKSVSVAAGESAILHCTITSLFPVGPIQWFRGAGPARVLIYNQRQGHFPRVTTVSETTKRENMDFSISISNITPADAGTYYCIKFRKGSPDTEFKSGAGTELSVRAKPS
notes: engineered SIRP-α D1 domain
Human CD47 [3]
  Kd: 0.38 nM
Human CD47 [4]
  Kd: 0.38 nM

B9: SIRP-α D1 variant polypeptide of SEQ ID NO: 56 (receptor)
chain: EEELQIIQPDKSVSVAAGESAILHCTVTSLFPVGPIQWFRGAGPARVLIYNQRQGPFPRVTTVSETTKRENMDFSISISNITPADAGTYYCIKFRKGSPDTEFKSGAGTELSVRAKPS
notes: engineered SIRP-α D1 domain
Human CD47 [3]
  Kd: 0.2 nM
Human CD47 [4]
  Kd: 0.2 nM

B10: SIRP-α D1 variant polypeptide of SEQ ID NO: 57 (receptor)
chain: EEELQIIQPDKSVSVAAGESAILHCTITSLIPVGPIQWFRGAGPARVLIYNQRQGPFPRVTTVSETTKRENMDFSISISNITPADAGTYYCIKFRKGSPDTEFKSGAGTELSVRAKPS
notes: engineered SIRP-α D1 domain
Human CD47 [3]
  Kd: 0.36 nM
Human CD47 [4]
  Kd: 0.36 nM

B11: SIRP-α D1 variant fused to Fc variant, SEQ ID NO: 97 (Fc fusion)
chain: EEELQVIQPDKSVLVAAGETATLRCTATSLFPVGPIQWFRGAGPGRELIYNQRQGPFPRVTTVSDLTKRNNMDFSIRIGNITPADAGTYYCVKFRKGSPDDVEFKSGAGTELSVRAKPSDKTHTCPPCPAPEAAGAPSVFLFPPKPKDTLMISRTPEVTCVVVDVSHEDPEVKFNWYVDGVEVHNAKTKPREEQYASTYRVVSVLTVLHQDWLNGKEYKCKVSNKALPAPIEKTISKAKGQPREPQVYTLPPSREEMTKNQVSLTCLVKGFYPSDIAVEWESNGQPENNYKTTPPVLDSDGSFFLYSKLTVDKSRWQQGNVFSCSVMHEALHNHYTQKSLSLSPGK
Human CD47 [5]
  Kd: 1.09 nM
Human CD47 [6]
  Kd: 1.55 nM

B12: SIRP-α D1 variant fused to Fc variant, SEQ ID NO: 104 (Fc fusion)
chain: EEELQIIQPDKSVLVAAGETATLRCTITSLFPVGPIQWFRGAGPGRELIYNQREGPFPRVTTVSDTTKRNNMDFSIRIGAITPADAGTYYCVKFRKGSPDDVEFKSGAGTELSVRAKPSDKTHTCPPCPAPEAAGAPSVFLFPPKPKDTLMISRTPEVTCVVVDVSHEDPEVKFNWYVDGVEVHNAKTKPREEQYASTYRVVSVLTVLHQDWLNGKEYKCKVSNKALPAPIEKTISKAKGQPREPQVYTLPPSREEMTKNQVSLTCLVKGFYPSDIAVEWESNGQPENNYKTTPPVLDSDGSFFLYSKLTVDKSRWQQGNVFSCSVMHEALHNHYTQKSLSLSPGK
Human CD47 [6]
  Kd: 0.0919 nM
Mouse CD47 [7]
  Kd: 8.04 nM

B13: engineered SIRP-α D1 variant construct that does not bind CD47, SEQ ID NO: 215 (Fc fusion)
chain: EEELQVIQPDKSVLVAAGETATLRCTATSLIPRGPIQWFRGAGPGRELIYNRKEGHFPRVTTVSDLTKRNNMDFSIRIGNITPADAGTYYCVKFRKGSPDDVEFKSGAGTELSVRAKPSDKTHTCPPCPAPEAAGAPSVFLFPPKPKDTLMISRTPEVTCVVVDVSHEDPEVKFNWYVDGVEVHNAKTKPREEQYASTYRVVSVLTVLHQDWLNGKEYKCKVSNKALPAPIEKTISKAKGQPREPQVYTLPPSREEMTKNQVSLTCLVKGFYPSDIAVEWESNGQPENNYKTTPPVLDSDGSFFLYSKLTVDKSRWQQGNVFSCSVMHEALHNHYTQKSLSLSPGK
notes: negative control; also called negative control
Human CD47 [1]
  binding result: no binding
Mouse CD47 [2]
  binding result: no binding
Rat CD47
  binding result: no binding

B14: SIRP-α D1 variant fused to Fc variant, SEQ ID NO: 100 (Fc fusion)
chain: EEELQVIQPDKSVLVAAGETATLRCTATSLFPVGPIQWFRGAGPGRELIYNQREGPFPRVTTVSDLTKRNNMDFSIRIGAITPADAGTYYCVKFRKGSPDDVEFKSGAGTELSVRAKPSDKTHTCPPCPAPEAAGAPSVFLFPPKPKDTLMISRTPEVTCVVVDVSHEDPEVKFNWYVDGVEVHNAKTKPREEQYASTYRVVSVLTVLHQDWLNGKEYKCKVSNKALPAPIEKTISKAKGQPREPQVYTLPPSREEMTKNQVSLTCLVKGFYPSDIAVEWESNGQPENNYKTTPPVLDSDGSFFLYSKLTVDKSRWQQGNVFSCSVMHEALHNHYTQKSLSLSPGK
Human CD47 [5]
  Kd: 1.79 nM
Human CD47 [6]
  Kd: 2.69 nM
Mouse CD47 [7]
  Kd: 63.2 nM

B15: SIRP-α D1 variant polypeptide of SEQ ID NO: 86 (receptor)
chain: EEELQIIQPDKSVLVAAGETATLRCTITSLFPVGPIQWFRGAGPGRVLIYNQRQGPFPRVTTVSDTTKRNNMDFSIRIGNITPADAGTYYCIKFRKGSPDDVEFKSGAGTELSVRAKPS
notes: engineered SIRP-α D1 domain
Human CD47 [6]
  Kd: 0.0144 nM
Mouse CD47 [7]
  Kd: 43 nM

B16: SIRP-α D1 variant polypeptide of SEQ ID NO: 198 (receptor)
chain: EEELQIIQPDKSVLVAAGETATLRCTITSLYPVGPIQWFRGAGPGRELIYNQREGPFPRVTTVSDTTKRNNMDFSIRIGAITPADAGTYYCVKFRKGSPDDVEFKSGAGTELSVRAKPS
Human CD47 [1]
  Kd: 0.155 nM
Mouse CD47 [2]
  Kd: 1.41 nM
Rat CD47
  Kd: 9.88 nM

B17: SIRP-α D1 variant polypeptide of SEQ ID NO: 205 (receptor)
chain: EEELQIIQPDKSVLVAAGETATLRCTITSLRPVGPIQWFRGAGPGRELIYNQREGPFPRVTTVSDTTKRNNMDFSIRIGAITPADAGTYYCVKFRKGIPDDVEFKSGAGTELSVRAKPS
Human CD47 [1]
  Kd: 0.248 nM
Mouse CD47 [2]
  Kd: 0.569 nM
Rat CD47
  Kd: 4.28 nM

B18: SIRP-α D1 variant polypeptide of SEQ ID NO: 200 (receptor)
chain: EEELQIIQPDKSVLVAAGETATLRCTITSLFPVGPIQWFRGAGPGRELIYNQREGPFPRVTTVSDTTKRNNMDFSIRIGAITPADAGTYYCVKFRKGIPDDVEFKSGAGTELSVRAKPS
Human CD47 [1]
  Kd: 0.304 nM
Mouse CD47 [2]
  Kd: 1.17 nM
Rat CD47
  Kd: 14.2 nM

B19: SIRP-α D1 variant polypeptide of SEQ ID NO: 204 (receptor)
chain: EEELQIIQPDKSVLVAAGETATLRCTITSLRPVGPIQWFRGAGPGRELIYNQRDGPFPRVTTVSDTTKRNNMDFSIRIGAITPADAGTYYCVKFRKGSPDDVEFKSGAGTELSVRAKPS
Human CD47 [6]
  Kd: 3.49 nM
Mouse CD47 [7]
  Kd: 5.21 nM
Human CD47 [1]
  Kd: 0.653 nM
Mouse CD47 [2]
  Kd: 0.448 nM
Rat CD47
  Kd: 3.42 nM

B20: SIRP-α D1 variant polypeptide of SEQ ID NO: 199 (receptor)
chain: EEELQIIQPDKSVLVAAGETATLRCTITSLFPVGPIQWFRGAGPGRELIYNQRDGPFPRVTTVSDTTKRNNMDFSIRIGAITPADAGTYYCVKFRKGSPDDVEFKSGAGTELSVRAKPS
Human CD47 [1]
  Kd: 1.26 nM
Mouse CD47 [2]
  Kd: 1.25 nM
Rat CD47
  Kd: 10.7 nM

B21: SIRP-α D1 variant polypeptide of SEQ ID NO: 208 (receptor)
chain: EEELQIIQPDKSVLVAAGETATLRCTITSLYPVGPIQWFRGAGPGRELIYNQREGPFPRVTTVSDTTKRNNMDFSIRIGAITPADAGTYYCVKFRKGIPDDVEFKSGAGTELSVRAKPS
Human CD47 [1]
  Kd: 0.219 nM
Mouse CD47 [2]
  Kd: 0.832 nM
Rat CD47
  Kd: 5.17 nM

B22: SIRP-α D1 variant polypeptide of SEQ ID NO: 207 (receptor)
chain: EEELQIIQPDKSVLVAAGETATLRCTITSLYPVGPIQWFRGAGPGRELIYNQRDGPFPRVTTVSDTTKRNNMDFSIRIGAITPADAGTYYCVKFRKGSPDDVEFKSGAGTELSVRAKPS
Human CD47 [1]
  Kd: 1.04 nM
Mouse CD47 [2]
  Kd: 0.88 nM
Rat CD47
  Kd: 5.9 nM
